Assay [1] deals with T1, Prp19, separately purified (analytical ultracentrifugation) (S. cerevisiae), P32523.
T1 chain: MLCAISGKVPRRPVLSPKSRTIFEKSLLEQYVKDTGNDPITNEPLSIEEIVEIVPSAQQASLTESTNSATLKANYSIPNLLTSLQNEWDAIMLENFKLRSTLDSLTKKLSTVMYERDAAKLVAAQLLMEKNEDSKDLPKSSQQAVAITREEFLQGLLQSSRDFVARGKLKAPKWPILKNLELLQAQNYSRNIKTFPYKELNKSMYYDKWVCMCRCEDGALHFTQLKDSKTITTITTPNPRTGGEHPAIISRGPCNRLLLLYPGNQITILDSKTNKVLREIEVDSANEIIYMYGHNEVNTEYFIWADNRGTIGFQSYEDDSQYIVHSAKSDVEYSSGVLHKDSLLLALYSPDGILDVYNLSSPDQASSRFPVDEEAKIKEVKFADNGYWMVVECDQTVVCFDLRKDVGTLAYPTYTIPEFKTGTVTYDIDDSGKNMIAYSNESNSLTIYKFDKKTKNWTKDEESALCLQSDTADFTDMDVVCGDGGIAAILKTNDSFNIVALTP
The assay is described as follows: AUC. Conditions: remark: other sources report otherwise.

Assay [2] addresses T2, Cwf8-Myc13 (S. pombe Prp19) (S. pombe, UniProt O14011 1-488).
T2 sequence (looked up): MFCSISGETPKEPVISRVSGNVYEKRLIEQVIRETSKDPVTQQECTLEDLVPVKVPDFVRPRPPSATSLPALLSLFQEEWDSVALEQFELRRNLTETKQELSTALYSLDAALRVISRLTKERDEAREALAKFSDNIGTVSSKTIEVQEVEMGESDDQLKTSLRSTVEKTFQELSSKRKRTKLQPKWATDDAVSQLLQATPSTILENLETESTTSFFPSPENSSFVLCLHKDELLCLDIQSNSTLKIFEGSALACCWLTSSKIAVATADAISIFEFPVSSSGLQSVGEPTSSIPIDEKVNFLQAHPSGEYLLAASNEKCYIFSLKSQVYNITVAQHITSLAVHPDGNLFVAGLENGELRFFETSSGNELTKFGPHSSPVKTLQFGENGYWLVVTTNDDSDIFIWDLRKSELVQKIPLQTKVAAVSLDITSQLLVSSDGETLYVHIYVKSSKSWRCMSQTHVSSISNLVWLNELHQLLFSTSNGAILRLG
Put plainly: co-IP.

For orientation: stoichiometry N means a count of units in the complex or per binding partner.

B1: Prp19, separately purified (analytical ultracentrifugation), P32523 1-503 (natural protein)
chain: T1 chain
In the case of B1, the stoichiometry N in assay [1] was 4.

B2: Cwf2-Myc13 (S. pombe Cwc2) (natural protein, UniProt P87126 1-388, looked up)
chain: MSENGLEQEVTVEEKNNDVTEKILVEGEKSKEYEETPRKVKIVKRKKQPARKQIETRPEYEMEPEQPGQVYNLWYNKWSGGMRQDPLKSQVKSETRCVISRDSGYTKADKNPGSFFCLYFARGMCSEGSKCEYLHRLPKDTDFFNANVDCFGREKHADYRDDMGGVGSFLRQNYTLYVGGITPTDDIEEIVSRHFAEWGDIERIRVLNSRGIAFITYLNEANAQFAKEAMAHQSLDHDECLNVRWATTDPNPASQARNQRRLEERAANAVKKLLPKQFLLDLEETKNGKSGNRKRKLELEFGLKGYVPSDDLLYADGANSVHNQLAANEFPNKSQSEEGSNDDHKSVTTTESQNKFVNSQILSDLQVAKQAVHTNQSALVSYYDSDED
Turning to B2, the “stoichiometry N” value in assay [2] was 2 copies of Cwf2 per four copies of Cwf8.

The record behind these values is article PMC2871033 (Structure (London, England : 1993), 2010).
